From publication PMC3928310, “Model of a DNA-Protein Complex of the Architectural Monomeric Protein MC1 from Euryarchaea”

Experiments:
MC1 WT [1] = target: T1, MC1 WT (Methanosarcina thermophila CHTI55, UniProt P12770 1-93); assay: NMR chemical shift perturbation; EMSA: 10 mM Tris-HCl pH 7.5, 150 mM NaCl, 1 mM EDTA, 15 ug/ml BSA, 8% glycerol, 15 min at 20 C, 0.1 nM DNA, TBE gel; NMR PRE: 10 mM phosphate pH 6, 100 mM NaCl, 10% D2O; conditions: protein: recombinant; blunt
T1 sequence: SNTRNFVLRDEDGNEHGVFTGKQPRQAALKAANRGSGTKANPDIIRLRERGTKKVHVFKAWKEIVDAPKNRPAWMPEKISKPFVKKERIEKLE

MC1 WT [2] = target: T1, MC1 WT; assay: EMSA; EMSA: 10 mM Tris-HCl pH 7.5, 150 mM NaCl, 1 mM EDTA, 15 ug/ml BSA, 8% glycerol, 15 min at 20 C, 0.1 nM DNA, TBE gel; NMR PRE: 10 mM phosphate pH 6, 100 mM NaCl, 10% D2O; conditions: protein: recombinant; label: 5'-32P on one strand; blunt
MC1 WT [3] = target: T1, MC1 WT; assay: NMR PRE; Mn2+ (EDTA-chelated probe); protein:DNA 1:1.2; EMSA: 10 mM Tris-HCl pH 7.5, 150 mM NaCl, 1 mM EDTA, 15 ug/ml BSA, 8% glycerol, 15 min at 20 C, 0.1 nM DNA, TBE gel; NMR PRE: 10 mM phosphate pH 6, 100 mM NaCl, 10% D2O; conditions: protein: recombinant; label: paramagnetic dT-EDTA-Mn2+; blunt

B1: 15 bp NMR duplex (dsDNA)
DNA 1: AAAAACACACACCCA
DNA 2: TGGGTGTGTGTTTTT
- binding result (MC1 WT [1]): binds

B2: 26 bp EMSA duplex (dsDNA)
DNA 1: GCCTCAAAAACACACACCCCCGACAG
DNA 2: CTGTCGGGGGTGTGTGTTTTTGAGGC
- Kd (MC1 WT [2]): 1.2 ± 0.1 nM

B3: DNA1* (dsDNA)
DNA 1: AAAAACACACACCCA
DNA 2: TGGGTGTGTGTTTTT
modifications: dT-EDTA (Mn2+) at the 5'-terminal T16 of strand 2
- binding result (MC1 WT [3]): binds
